Measurements from the nanobody polyreactivity screen of Harvey et al. (2022).

assay: yeast display, Sf9 membrane polyspecificity reagent, FACS + sequencing; frameworks hold sequencing errors
Outline: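 A synthetic nanobody library was expressed on Saccharomyces cerevisiae BJ5465 by galactose induction for 36–48 hours. The library was stained for 1 hour at 4 °C with 10% biotinylated, detergent-solubilized Sf9 membrane reagent and enriched with streptavidin microbeads before FACS. Low and high (top ~1%) gates were set on anti-HA fluorescence for expression and streptavidin fluorescence for reagent binding, and each polyreactivity label reflects the gate of origin.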

Sequence	polyreactivity (PSR sort gate)
QVQLVESGGGLVQAGGSLRLSCAPSGRIFAGYAMGWYRQAHGKERELVAAISWRGTSTYYADSVKGRFTISRDNAKNTVYLQMNSLKPEDTAVYYCAARYTKGMYYWGQGTQVTVSS	high polyreactivity
PVQLVESGGGLVQAGGPLRLSCAASGFNITSYVMGWYRPAPGKERELVAAISAGGGSTYYADSVKGRFTISRDNAKNTVYLQMNSLIPDDTAVYYCAADPLYEQIYYAIYHYNDGYDYWGQGTQVTVSS	high polyreactivity
QVQLVESGGGLDQAGGSLRLSCASSGFTFGRYAMGWYRQAPGKERELVDTITRSGVNTYYADSVKGRFTISRDNAKNTVYLQMNSLKPEDTAVSYCNVRYPLATYRLPAGEFDYWGQGTQVTVSS	high polyreactivity
HVQLVESGGGLVQAGGSLRLSCAASGSTFGYNARGWYRQAPGKERELVAVITDSGGSTKYADSVKGRFTISRDNAKKTVYLQMNSLKPEDTAVYYCAKRSSQTRRAYDYWGQGTQVTVSS	low polyreactivity
QVQLVESGGGLVQAGGSLRLSCAASGFTFIYYAMGWYRQAPGKERELVAGISSGGRTSYADSVKGRFTISRDNAKNTVYLQMNSLKPEDTAVYYCATPVSRFRRTEYGYYYWGQGTQVTVSS	high polyreactivity
QVQLVESGGGLVQAGGSLRLSCAASGTYFGYAMGWYRQAPGKETELVAAITSGGSTYYADSVKGRFTISRDNAKNTVYLQMNSLKPEDTADYYCARVYSRWSYRYDYWGQGSQVTVSS	low polyreactivity
QVHLVESGGGLVQAGGSLRLSCAASGRIIWNYAMGWYRQAPGKERELVASINRSGGTTYYADSVKGRFTISRDNAKNTVYLQMNSLKPEDTAVYYCNTVYYGNFYSTRYDYWGQGTQVTVSS	high polyreactivity
QVQLVESGGGLVQAGGSLRLSCAASGSTFYRYAMGWYRQAPGKERELVAAISRNGGSTYYSDSVKGRFTISRDNAKNTVYLQMNSLKPEDTAVYYCAAVWPYGSRVAPMDYWGQGTQVTVSS	high polyreactivity
QVQLVESGGGLVQAGGSLRLSCAASGYISSYNPMGWSRQAPGKERELVASITRGGSTYYADSVKGRFTISRDNAKNTVYLQMNSLKPEDTAVYYCAADTLRQYDYEYWGQGTQVTVSS	high polyreactivity
QVQLVESGGGLVQAGGSLRLSCAASGSIFKGYTMGWYRQAPGNERELVASMRPRGGSTYYADSVKGRFTMSRHNAKNPVDLQMNSLKPEDTAVYYCAAPWGGFAGQERKYDYWGQGTQVTVSS	low polyreactivity
QVQLVESGGGLVQAGGSLRLSCAASGRIFYLYARGWYRQAPGKERELVATISSSGGRTYYADSVKGRFTISRDNAKNTVYLQMNSLKPEDTAVYYCNAYGEDDGPYPFPGYNYWGQGTQVTVSS	low polyreactivity
QVHLVESGGGLVQAAGSLRLSCAASVSTIPPNAMGWDRQAPGKEREFVAAISSVGSSYYADSVKGRFTISRDNAKKTFYLQMNSLKPEDTAVYYCAKGSWYWVEPYDYWGLGTQVTVSS	high polyreactivity
QVQLVESGGGLVQAGGSLRLTCAASGRIFNYYAMGWYRQAPGKEREFVAAITRSGGRTYYADSVKGRFTISRDNAKNTVYLQMNSLKPEDTAVYYCAAPYGTYAYDYWGQGTQVTVSS	high polyreactivity
QVQLVESGGGLVQAGGSLRVSCAASGSIFYYAMGWYRQAPGKERELVASIRSGGSTKFADSVKGRFTISRDNAKNTVYLQMNSLKPEDTAVYYCAARGVIRYTYKSTPYDYWGQGTQVTVSS	high polyreactivity
QVQLVESGGGLVQAGGSLRLSCAASGFTFAGYAMGWYRQAPGKERELVAGIRSSGARTNYADSVKGRFTISRDNAKNTVYLQMNSLKPEDTAVYYCNAVRTLYIWWPGYYYWGQGTQVTVSS	low polyreactivity
QVQLVESGGGLVQAGGSLRLSCAASGSILNNYAMGWYRQAPGKERELVAAISSSGGTNYADSVKGRFTISRDNAKYTVYLQMNSLKPEDTAVYYCNADVLDGGYDYWGQGTQVTVSS	low polyreactivity
QVQLVESGGGLVQAGGSLRLSCAAYGRTFWRNAMGWYRQAPGKEREWVAAISRSGDSTRYADSLKGRFTISRDNAKNTFYLQMNSLKPEDTAVYYCNKLGTRVYEMDYWGQGTQVTVSS	high polyreactivity
QVQLVESGGGLVQAGGSLRLSCAASGRIFAPNAMGWYRQAPGKERELVAAISFSGDSTSYADSVKGRFTISRDNAKNTVYLQMNSLKPEDTAVYYCATDRRVQYPLGPSYDYDYWGQGTQVTVSS	low polyreactivity
QVQLVESVGGLVQAGGSLRLSCAASGRILKRNAMGWYRQAPGKERELVAAISWSTGTTYYADSVKGRFTISRDNAKNTVYLQMKSLKPEDTAVYYSAKQIVSGRRVDRNDYWGQGTQVSVSS	low polyreactivity
QVQLGESGGGLVQAGGSLRLSCDASGTSNPYNAMGWYRQAPGKERELVATISTNDGSTYYADSVKGRFTISRDNEKNTVYLQMNSLKPDDTAVYYCASRGFARYWGQRTQVTVSS	low polyreactivity
QVQLVESGGGLVQAGGSLRLSCAASGSTFLENAMGWYRQAPGKEREFVAAISKSGGSTSYADSVKGRFTISRDNAKNTVYLQMNSLKPEDTAVYYCATRRSRAYDYWGQGTQVTVSS	high polyreactivity

Sequence	polyreactivity (PSR sort gate)
QVQLVESGGGLVQAGGSLRLSCAASGRIFTNYAMGWYRQAPGKERELVATINGGGITNYADSVKVRFTISRDNAKNTVYLQMNSLKPEDNAVYYCATDRLSYGYKPGYTFYYWEQGTQVTVSS	high polyreactivity
QVQLVESGGGLVQAGGSLRLSCAASGSTFQYYAMGWYRQAPGKERELVASISLSGTSTYYADSVKGRFTISRDNAKNTVYLQMNSLKPEDTAVYYCAADIVPWWASFLYDGEDYWGQGTQVTVSS	low polyreactivity
QVQLVESGGGLVQAGGSLRLSCAASGFIFSKNAMGWYRQAPGKERELVAAISTRGGSTYYADSVKGRFTISRDNAKNTVYLQMNSLKPEDTAVYYCNKEWYPYKHNYWGQGTQVTVSS	low polyreactivity
QVQLVESGGGLVQEGGSLRLSCAASGSIFFPYAMGWYRQAPGKEREFFADITWSGGSTYYADSVKGRFTISRDNAKNTVYLQMNSLKPEDTAVYYCNTDYYLLSVVWFSYTLYEYWGQGTQVTLSS	high polyreactivity
QVQLVESGGGLVQAGGSLRLSCAASGRIFLRNAMGWYRQEPGKERELVASIDRSGGSTYYADSVKGRFTISRDNAKNTVFLQMNSLKPEDTAVYYCAAAYWYLYYYWGQGTQVTVSS	low polyreactivity
QVQLVESGGGLVQAGGSLRLSCAASGSIFSGNEMAWYRQAPGKERELVAAISSNGGRTYYADSVKGRFTISRDNEKNTVYLQMNSLKPEDTAVDYCAADSGKRRYGYYYWGQATQVTVSS	high polyreactivity
QVQLVESGGGLVQAGGSLRLSCAASGSIFRYYAMGWYRQAPGKERELVATITFNGGNTYYADSVKGRFTISRDNAKNTVYLQMNSLKPEDTAVYYCAATYVRRGPTRYYYWGQGTQVTVSS	high polyreactivity
QVQLVESGGGLVQAGGSLSLSCAASGLIFYYYAMGWYRQAPGKERELVAAITRGGRTYYADSVKGRFTISRDNAKNTVYLQMNSLKPEDTAVYYCAAVTRVYGKTMGYWGQGTQVTVSS	high polyreactivity
QVQLVESGGGLVQAGGSLRLSCAASGFIFWDYAMGCYRQAPGKERELVAAISDSGGDTYYADSVKGRFTLSRDNAKNTVYLQMNSLKPEDPAVYYRAADVELWVFRGQQYDYWGQGTQETVSS	low polyreactivity
QVQIVESGGGLVQAGGSLRLSFAASGRTFGVYAMGWYRQAPGKERELVAAISATGGSTYYADSVKGRFTISRDNSKNTVYLQMNSLKPEDTAVYYCARGGTTLYWGLGTQVTVSS	high polyreactivity
QVQLVESVGGLVQAGGSLRLSCAASGRTFYQYALGWYRQAPGKERELVAVINGGGSTNYADSVKGRFTISRDNAKNTVYLQMNSLKPEDTAVYYCNADGRRGRYDYWGQGTQVTVSS	low polyreactivity
QVQLVESGGGLVQAGGSLRLSCAASGYTFYFYAMGWSRQAPGKERELVAAITGGGTTSYADSVKGRFTISRDNAKNTVYLQMNSLKPEDTAVYYCNVLFADKSDYWGQGSQVTVSS	low polyreactivity
QVQLVESGGGLVQAGGSLRLSCAASGSTFWYYAMGWYRQAPGKEREMVATIRWRGGSTYYADSVKGRFTISRDNAKNTLYLQMNSLKPEDTAVYYCAADTWAYVGYYYGFDYWGQGTQVTVSS	high polyreactivity
QVQLVESGGGLVQAGGSLRLSCAASGSTFGRNTMGWYRQAPGKERELVAAITSCDTTTYADSVKGRFTISLDNAKNTVYIQMNSLKPEDTAVYYCAVDPVRGLDYSWMDYWGQGTQVTVSS	low polyreactivity
QVQLVESGGGLVHEGGSLRLSCAASGRLFKSYAMGWYRQAPVKERELVAAISRSGGRTYYADSVKGRFTISRDNAKNTVYLQMNSLKPEDTAVYYCAATTFVAPYWGQGTQVTVSS	low polyreactivity
QVQLVESGGGLVQAGGSLRLSCAASGRILHEYAMGWYRQAPGKERELVAAITFSGTSTYYADSVKGRFTISRDNAKNTVYLQMNSLKPEDTAVYYCAADTYGGSRDYWGQGTQVTVSS	low polyreactivity
QVQLVESGGGLVQAGGSLRLSCAASGSNFTSYAMGWYRQAPGKERELVAAISKSGGSTYYADSVKGRFTISRDNAKNTVYLQMNSLKPEDTAVFYCAARYNVRSYTTSRFDYWGQGTQVTVSS	low polyreactivity
QVQLVESGGGLVQAGGSLRLSCAASGSTFFYNAMGWYRQAPGKERESTNYADSVKGRFTISRDNAKNTVYLQMNSLKPEDTAVYYSAKDRSYYRKFSSYRLHDYWGHGTQVTVSS	low polyreactivity
QVKLQESGGGLVQAGGSLRLSCAASGNISVTGFMGLYRQAPGKERELVASIGIGGTTYYADSVKGRFSISRDNAKNTVYLQMNSLKPEDTAVYYCAGIYLYYAYSYWGQGTQVTVSS	low polyreactivity
QVQLVESVVGLVQEGGSLRLSCAASGRIFAWYAMGWYRQAPGKERELVAAISDSGGSTYYADSVKGRFTISRDNAKNTVYLQMNSLKPEDTAVYYCAAQYVIRITFYATYWDDYWGQGTQVTVSS	low polyreactivity
